Measurements reported in patent publication US20150299797A1, “COMPOSITIONS AND METHODS RELATING TO BLOOD-BASED BIOMARKERS OF BREAST CANCER” (UNIVERSITY OF UTAH RESEARCH FOUNDATION, priority 2012, published 2015).
Entries after “also recorded” stand apart in the source; their conditions may differ.

Tested on: normal mammary epithelial cells from high-risk (HBC) women or control women
Test: Drug response assay (CellTiter-Glo cell viability, dose-response)
Assay type: cell-based, human
Conditions: HBC/high-risk vs control, viability after 96 hours, TRAIL p-value<0.001
Procedure: Normal mammary epithelial cells isolated from either high-risk women undergoing prophylactic mastectomy or control women with no family history of breast cancer undergoing breast-reduction surgery for non-cancer related health issues were isolated, and single-cell suspensions were generated. 1500 cells/well for each patient samples were plated in 40 microliters of MEBM basal media supplemented with a MEGM Bulletkit [Lonza] in half-well 96-well plates [Nunc] in triplicate for each drug dose. After 24 hours, TRAIL, Afatinib, Gefitinib, and EGF were added. The indicated doses were chosen within the average linear range of drug effect: TRAIL (0.1 ng/mL-5.0 ng/ml), Afatinib (10 nM-[…]), Gefitinib (0.001 mM-0.5 mM), EGF (5 ng/mL-500 ng/mL) [Millipore (TRAIL) and Selleckchem]. A BIOMEK 3000 (Beckman Coulter, Brea, Calif., USA) robot was used to seed the cells and dispense the drugs. After 96 hours, cell viability was quantified using the CellTiter-Glo Luminescent Cell Viability Assay [Promega]. The proportion of viable cells was calculated for each dosage by comparing against cell counts for non-treated cells. A summary value was calculated for each cell line as the slope of a linear-regression line fitted to the cell-count proportions.

B1: TRAIL: TNF-related apoptosis inducing ligand (TRAIL), from Millipore (protein, UniProt P50591 1-281, looked up)
Tumor necrosis factor ligand …: MAMMEVQGGPSLGQTCVLIVIFTVLLQSLCVAVTYVYFTNELKQMQDKYSKSGIACFLKEDDSYWDPNDEESMNSPCWQVKWQLRQLVRKMILRTSEETISTVQEKQQNISPLVRERGPQRVAAHITGTRGRSNTLSSPNSKNEKALGRKINSWESSRSGHSFLSNLHLRNGELVIHEKGFYYIYSQTYFRFQEEIKENTKNDKQMVQYIYKYTSYPDPILLMKSARNSCWSKDAEYGLYSIYQGGIFELKENDRIFVSVTNEHLIDMDHEASFFGAFLVG
Question: Which “response of primary breast cells of HBC women compared to controls (proportion of viable cells, slope of fitted dose-response)” value does the source give for B1 here?
Answer: significantly increased response; also recorded: significantly more responsive
